Data set [1] concerns the molecule itself. Briefly: self-association; BS3 cross-linking, IIA Western blot. An excerpt:
Chemical crosslinking was used to examine the state of oligomerization of the IIA collagen domain.
In general terms: Immunoblotting shows a protein as a band on a membrane.

Data set [2] deals with the molecule itself. Nature of the data set: self-association; BS3 cross-linking (0-2 mM), anti-IIA immunoblot. As to the method:
J. 318:505-511 (1996)) (FIG. 8). Each mutant protein was covalently cross-linked and the presence of protein monomers, dimers or trimers was detected by immunoblotting using the anti-IIA antibody. […] The IIA NH₂-propeptide attached to the 35 amino acid stretch of the coiled-coil neck (mIIA-237) was also secreted as a non-covalent trimer. However, lower concentrations of cross-linker (0.1-0.2 mM) were sufficient for detection of mIIA-237 trimers compared to concentrations used to detect trimers of the other truncated mutant proteins (0.5-1 mM), and no dimeric intermediate was identified. Co-operativity exists between the IIA NH₂-propeptide collagen domain and the 14 amino acid sequence of the SP-D coiled-coil neck domain
To determine the minimum sequence that can function as a trimerizing unit, mutant constructs were designed containing termination codons at specific locations within the heptad repeats of the coiled-coil. Using IIA/SP-D cDNA in pGEM-3Z as a substrate, four mutant constructs were synthesized using the QuikChangem Site-Directed Mutagenesis Kit (Stratagene, La Jolla, Calif.). The sequence of the mutant was confirmed by DNA sequencing. […] Proteins were detected by SDS-PAGE and immunolocalization of Western blots using the anti-IIA polyclonal antibody.

B1: IIA NH2-propeptide synthesized without fusion to the neck/CRD domains of SP-D (other, human, UniProt P02458 26-203, looked up)
chain: QDVQEAGSCVQDGQRYNDKDVWKPEPCRICVCDTGTVLCDDIICEDVKDCLSPEIPFGECCPICPTDLATASGQPGPKGQKGEPGDIKDIVGPKGPPGPQGPAGEQGPRGDRGDKGEKGAPGPRGRDGEPGTPGNPGPPGPPGPPGPPGLGGNFAAQMAGGFDEKAGGAQLGVMQGPM
notes: domain: NH2-propeptide (exons 1-8); Transiently transfected CHO cells; secreted as monomers; also called control construct of full-length IIA NH2-propeptide only
Turning to B1, the binding result in data set [1] is on record as “no binding”.

B2: mIIA-203 (other, human, UniProt P02458 26-203, looked up)
chain: QDVQEAGSCVQDGQRYNDKDVWKPEPCRICVCDTGTVLCDDIICEDVKDCLSPEIPFGECCPICPTDLATASGQPGPKGQKGEPGDIKDIVGPKGPPGPQGPAGEQGPRGDRGDKGEKGAPGPRGRDGEPGTPGNPGPPGPPGPPGPPGLGGNFAAQMAGGFDEKAGGAQLGVMQGPM
notes: domain: NH2-propeptide (exons 1-8); Truncation mutant of IIA/SP-D, control
For B2, in data set [2], the binding result is “no binding”.

B3: mIIA-211 (other, human;rat, UniProt P02458 26-203, looked up)
chain: QDVQEAGSCVQDGQRYNDKDVWKPEPCRICVCDTGTVLCDDIICEDVKDCLSPEIPFGECCPICPTDLATASGQPGPKGQKGEPGDIKDIVGPKGPPGPQGPAGEQGPRGDRGDKGEKGAPGPRGRDGEPGTPGNPGPPGPPGPPGPPGLGGNFAAQMAGGFDEKAGGAQLGVMQGPMDSAALRQQ
notes: domain: NH2-propeptide (exons 1-8);domain: first heptad repeat of the coiled-coil neck domain; Truncation mutant of IIA/SP-D; also called IIA NH2-propeptide fused to the first heptad repeat
As for B3, in data set [2], the binding result was “no binding”.
